Test results taken from article PMC4031664.

Assays:
Experiment in all cases: SPR
[1] = target: N-terminally truncated PrP (PrP89–230) (mouse) (UniProt P04925)
[2] = target: N-terminally truncated human PrP90–231 (human) (UniProt P04156)
[3] = target: full-length PrP (PrP23–231) (mouse) (UniProt P04925)
[4] = target: N-terminal human PrP fragment (PrP23–145) (human) (UniProt P04156)

Substance: Quiescin-sulfhydryl oxidase (from UniProt O00391 30-747) (enzyme)
- Kd [1]: 0.312 µM
- Kd [2]: 0.771 µM
- Kd [3]: 0.002 µM
- Kd [4]: 0.0036 µM
